T1: human TL1A extracellular domain with N-terminal HIS and FLAG tag (human, UniProt O95150 72-251)
T1 construct: the whole entry is named; also called TNFSF15
T1 sequence: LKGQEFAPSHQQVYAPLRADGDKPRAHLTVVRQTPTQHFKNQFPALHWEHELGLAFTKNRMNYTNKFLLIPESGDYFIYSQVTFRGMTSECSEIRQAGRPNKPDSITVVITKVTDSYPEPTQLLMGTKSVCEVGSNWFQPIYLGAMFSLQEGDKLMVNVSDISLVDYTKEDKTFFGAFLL


How the values were obtained:
[1] = biological target: T1, human TL1A extracellular domain with …; assay: SPR Run 7, antibody on Protein A, TL1A 5 ug/mL, timepoint 44
Source text: (§1) 1.5. Antibody expression and antigen binding as determined by SPR. Using a CM5 sensor chip (GE Healthcare) Protein A (Pierce) was coupled to the chip surface using an amine coupling kit (GE Healthcare). Protein A was coupled on flow cell 1 and 2 (or alternatively 3 and 4) using a BIACORE® T200. […] The amount of supernatant or purified protein (as well as the concentration) injected during the capture stage varied between runs and is specified in the header of the Tables 3-11. At the end of injection of the supernatant or purified antibody the change in response units was measured. This value was reported as Capture Level in Tables 3-11. […] The response units were measured prior to the end of the dissociation phase. […] The sensorgrams were double referenced (flow cell 2 is subtracted from flow cell 1 and a buffer blank). As there were a large number of antibody variants to screen, these were screened across different runs (Tables 3-11). […] A summary of the conditions used in each run is below:
(§2) 2.1. […] In some experiment the antibodies were purified using Protein A chromatography (See 1.4) and purified antibodies were used in BIACORE® (GE Healthcare) experiments.

[2] = biological target: T1, human TL1A extracellular domain with …; assay: SPR Run 7, antibody on Protein A, TL1A 5 ug/mL, timepoint 220
Source text: as §1, §2

Row | Binder | TL1A Binding Level (Early) [1] [RU] | TL1A Binding Level (Late) [2] [RU]
1 | 320-507 (antibody, human IgG1, name in Kabat numbering, V domains shown, full-length human IgG1, lambda) VH: QVQLVQSGAEVKKPGASVKVSCKASGYTFTSYDINWVRQAPGQGLEWMGWLNQNSGNTGYAQKFQGRVTMTADRSTSTAYMELSSLRSEDTAVYYCAREVPETAAFEYWGQGTLVTVSS VL: QSVLTQPPSVSGAPGQRVTISCTSSSSDIGAGLGVHWYQQLPGTAPKLLIEGYYNRPSGVPDRFSGSKSGTSASLTITGLLPEDEGDYYCQSYDGTLSALFGGGTKLTVLG | 27 | 24
2 | 320-508 (antibody, human IgG1, name in Kabat numbering, V domains shown, full-length human IgG1, lambda) VH: QVQLVQSGAEVKKPGASVKVSCKASGYTFTSYDINWVRQAPGQGLEWMGWLNDNSGNTGYAQKFQGRVTMTADRSTSTAYMELSSLRSEDTAVYYCAREVPETAAFEYWGQGTLVTVSS VL: QSVLTQPPSVSGAPGQRVTISCTSSSSDIGAGLGVHWYQQLPGTAPKLLIEGYYNRPSGVPDRFSGSKSGTSASLTITGLLPEDEGDYYCQSYDGTLSALFGGGTKLTVLG | 19 | 12
3 | 320-509 (antibody, human IgG1, name in Kabat numbering, V domains shown, full-length human IgG1, lambda) VH: QVQLVQSGAEVKKPGASVKVSCKASGYTFTSYDINWVRQAPGQGLEWMGWLNHNSGNTGYAQKFQGRVTMTADRSTSTAYMELSSLRSEDTAVYYCAREVPETAAFEYWGQGTLVTVSS VL: QSVLTQPPSVSGAPGQRVTISCTSSSSDIGAGLGVHWYQQLPGTAPKLLIEGYYNRPSGVPDRFSGSKSGTSASLTITGLLPEDEGDYYCQSYDGTLSALFGGGTKLTVLG | 52 | 47
4 | 320-510 (antibody, human IgG1, name in Kabat numbering, V domains shown, full-length human IgG1, lambda) VH: QVQLVQSGAEVKKPGASVKVSCKASGYTFTSYDINWVRQAPGQGLEWMGWLNKNSGNTGYAQKFQGRVTMTADRSTSTAYMELSSLRSEDTAVYYCAREVPETAAFEYWGQGTLVTVSS VL: QSVLTQPPSVSGAPGQRVTISCTSSSSDIGAGLGVHWYQQLPGTAPKLLIEGYYNRPSGVPDRFSGSKSGTSASLTITGLLPEDEGDYYCQSYDGTLSALFGGGTKLTVLG | 44 | 33
5 | 320-511 (antibody, human IgG1, name in Kabat numbering, V domains shown, full-length human IgG1, lambda) VH: QVQLVQSGAEVKKPGASVKVSCKASGYTFTSYDINWVRQAPGQGLEWMGWLNLNSGNTGYAQKFQGRVTMTADRSTSTAYMELSSLRSEDTAVYYCAREVPETAAFEYWGQGTLVTVSS VL: QSVLTQPPSVSGAPGQRVTISCTSSSSDIGAGLGVHWYQQLPGTAPKLLIEGYYNRPSGVPDRFSGSKSGTSASLTITGLLPEDEGDYYCQSYDGTLSALFGGGTKLTVLG | 106 | 98
6 | 320-512 (antibody, human IgG1, name in Kabat numbering, V domains shown, full-length human IgG1, lambda) VH: QVQLVQSGAEVKKPGASVKVSCKASGYTFTSYDINWVRQAPGQGLEWMGWLNWNSGNTGYAQKFQGRVTMTADRSTSTAYMELSSLRSEDTAVYYCAREVPETAAFEYWGQGTLVTVSS VL: QSVLTQPPSVSGAPGQRVTISCTSSSSDIGAGLGVHWYQQLPGTAPKLLIEGYYNRPSGVPDRFSGSKSGTSASLTITGLLPEDEGDYYCQSYDGTLSALFGGGTKLTVLG | 126 | 118
7 | 320-513 (antibody, human IgG1, name in Kabat numbering, V domains shown, full-length human IgG1, lambda) VH: QVQLVQSGAEVKKPGASVKVSCKASGYTFTSYDINWVRQAPGQGLEWMGWLNYNSGNTGYAQKFQGRVTMTADRSTSTAYMELSSLRSEDTAVYYCAREVPETAAFEYWGQGTLVTVSS VL: QSVLTQPPSVSGAPGQRVTISCTSSSSDIGAGLGVHWYQQLPGTAPKLLIEGYYNRPSGVPDRFSGSKSGTSASLTITGLLPEDEGDYYCQSYDGTLSALFGGGTKLTVLG | 99 | 90
8 | 320-514 (antibody, human IgG1, name in Kabat numbering, V domains shown, full-length human IgG1, lambda) VH: QVQLVQSGAEVKKPGASVKVSCKASGYTFTSYDINWVRQAPGQGLEWMGWLNPASGNTGYAQKFQGRVTMTADRSTSTAYMELSSLRSEDTAVYYCAREVPETAAFEYWGQGTLVTVSS VL: QSVLTQPPSVSGAPGQRVTISCTSSSSDIGAGLGVHWYQQLPGTAPKLLIEGYYNRPSGVPDRFSGSKSGTSASLTITGLLPEDEGDYYCQSYDGTLSALFGGGTKLTVLG | 96 | 88
9 | 320-515 (antibody, human IgG1, name in Kabat numbering, V domains shown, full-length human IgG1, lambda) VH: QVQLVQSGAEVKKPGASVKVSCKASGYTFTSYDINWVRQAPGQGLEWMGWLNPSSGNTGYAQKFQGRVTMTADRSTSTAYMELSSLRSEDTAVYYCAREVPETAAFEYWGQGTLVTVSS VL: QSVLTQPPSVSGAPGQRVTISCTSSSSDIGAGLGVHWYQQLPGTAPKLLIEGYYNRPSGVPDRFSGSKSGTSASLTITGLLPEDEGDYYCQSYDGTLSALFGGGTKLTVLG | 73 | 67
10 | 320-516 (antibody, human IgG1, name in Kabat numbering, V domains shown, full-length human IgG1, lambda) VH: QVQLVQSGAEVKKPGASVKVSCKASGYTFTSYDINWVRQAPGQGLEWMGWLNPQSGNTGYAQKFQGRVTMTADRSTSTAYMELSSLRSEDTAVYYCAREVPETAAFEYWGQGTLVTVSS VL: QSVLTQPPSVSGAPGQRVTISCTSSSSDIGAGLGVHWYQQLPGTAPKLLIEGYYNRPSGVPDRFSGSKSGTSASLTITGLLPEDEGDYYCQSYDGTLSALFGGGTKLTVLG | 92 | 86
11 | 320-517 (antibody, human IgG1, name in Kabat numbering, V domains shown, full-length human IgG1, lambda) VH: QVQLVQSGAEVKKPGASVKVSCKASGYTFTSYDINWVRQAPGQGLEWMGWLNPDSGNTGYAQKFQGRVTMTADRSTSTAYMELSSLRSEDTAVYYCAREVPETAAFEYWGQGTLVTVSS VL: QSVLTQPPSVSGAPGQRVTISCTSSSSDIGAGLGVHWYQQLPGTAPKLLIEGYYNRPSGVPDRFSGSKSGTSASLTITGLLPEDEGDYYCQSYDGTLSALFGGGTKLTVLG | 55 | 50
12 | 320-518 (antibody, human IgG1, name in Kabat numbering, V domains shown, full-length human IgG1, lambda) VH: QVQLVQSGAEVKKPGASVKVSCKASGYTFTSYDINWVRQAPGQGLEWMGWLNPHSGNTGYAQKFQGRVTMTADRSTSTAYMELSSLRSEDTAVYYCAREVPETAAFEYWGQGTLVTVSS VL: QSVLTQPPSVSGAPGQRVTISCTSSSSDIGAGLGVHWYQQLPGTAPKLLIEGYYNRPSGVPDRFSGSKSGTSASLTITGLLPEDEGDYYCQSYDGTLSALFGGGTKLTVLG | 169 | 153
13 | 320-519 (antibody, human IgG1, name in Kabat numbering, V domains shown, full-length human IgG1, lambda) VH: QVQLVQSGAEVKKPGASVKVSCKASGYTFTSYDINWVRQAPGQGLEWMGWLNPKSGNTGYAQKFQGRVTMTADRSTSTAYMELSSLRSEDTAVYYCAREVPETAAFEYWGQGTLVTVSS VL: QSVLTQPPSVSGAPGQRVTISCTSSSSDIGAGLGVHWYQQLPGTAPKLLIEGYYNRPSGVPDRFSGSKSGTSASLTITGLLPEDEGDYYCQSYDGTLSALFGGGTKLTVLG | 217 | 196
14 | 320-520 (antibody, human IgG1, name in Kabat numbering, V domains shown, full-length human IgG1, lambda) VH: QVQLVQSGAEVKKPGASVKVSCKASGYTFTSYDINWVRQAPGQGLEWMGWLNPLSGNTGYAQKFQGRVTMTADRSTSTAYMELSSLRSEDTAVYYCAREVPETAAFEYWGQGTLVTVSS VL: QSVLTQPPSVSGAPGQRVTISCTSSSSDIGAGLGVHWYQQLPGTAPKLLIEGYYNRPSGVPDRFSGSKSGTSASLTITGLLPEDEGDYYCQSYDGTLSALFGGGTKLTVLG | 174 | 162
15 | 320-521 (antibody, human IgG1, name in Kabat numbering, V domains shown, full-length human IgG1, lambda) VH: QVQLVQSGAEVKKPGASVKVSCKASGYTFTSYDINWVRQAPGQGLEWMGWLNPWSGNTGYAQKFQGRVTMTADRSTSTAYMELSSLRSEDTAVYYCAREVPETAAFEYWGQGTLVTVSS VL: QSVLTQPPSVSGAPGQRVTISCTSSSSDIGAGLGVHWYQQLPGTAPKLLIEGYYNRPSGVPDRFSGSKSGTSASLTITGLLPEDEGDYYCQSYDGTLSALFGGGTKLTVLG | 166 | 152
16 | 320-522 (antibody, human IgG1, name in Kabat numbering, V domains shown, full-length human IgG1, lambda) VH: QVQLVQSGAEVKKPGASVKVSCKASGYTFTSYDINWVRQAPGQGLEWMGWLNPYSGNTGYAQKFQGRVTMTADRSTSTAYMELSSLRSEDTAVYYCAREVPETAAFEYWGQGTLVTVSS VL: QSVLTQPPSVSGAPGQRVTISCTSSSSDIGAGLGVHWYQQLPGTAPKLLIEGYYNRPSGVPDRFSGSKSGTSASLTITGLLPEDEGDYYCQSYDGTLSALFGGGTKLTVLG | 141 | 129
17 | 320-523 (antibody, human IgG1, name in Kabat numbering, V domains shown, full-length human IgG1, lambda) VH: QVQLVQSGAEVKKPGASVKVSCKASGYTFTSYDINWVRQAPGQGLEWMGWLNPNAGNTGYAQKFQGRVTMTADRSTSTAYMELSSLRSEDTAVYYCAREVPETAAFEYWGQGTLVTVSS VL: QSVLTQPPSVSGAPGQRVTISCTSSSSDIGAGLGVHWYQQLPGTAPKLLIEGYYNRPSGVPDRFSGSKSGTSASLTITGLLPEDEGDYYCQSYDGTLSALFGGGTKLTVLG | 88 | 82

From patent US20170081400A1 (CEPHALON, published 2017)
